# From US20230227838A1, “ENHANCED CELL SURVIVAL AGAINST BIOTIC AND ABIOTIC STRESSES THROUGH SALICYLICK ACID-INDUCED NPR1 CONDENSATES” (priority 2020, published 2023)
# Molecular target: sim3-GFP (Arabidopsis thaliana) (UniProt P93002)
# Test: sim3-GFP IP, LC-MS/MS
# Sequence of sim3-GFP (Arabidopsis thaliana) (P93002 other isoform, or with tags, fused parts or gaps): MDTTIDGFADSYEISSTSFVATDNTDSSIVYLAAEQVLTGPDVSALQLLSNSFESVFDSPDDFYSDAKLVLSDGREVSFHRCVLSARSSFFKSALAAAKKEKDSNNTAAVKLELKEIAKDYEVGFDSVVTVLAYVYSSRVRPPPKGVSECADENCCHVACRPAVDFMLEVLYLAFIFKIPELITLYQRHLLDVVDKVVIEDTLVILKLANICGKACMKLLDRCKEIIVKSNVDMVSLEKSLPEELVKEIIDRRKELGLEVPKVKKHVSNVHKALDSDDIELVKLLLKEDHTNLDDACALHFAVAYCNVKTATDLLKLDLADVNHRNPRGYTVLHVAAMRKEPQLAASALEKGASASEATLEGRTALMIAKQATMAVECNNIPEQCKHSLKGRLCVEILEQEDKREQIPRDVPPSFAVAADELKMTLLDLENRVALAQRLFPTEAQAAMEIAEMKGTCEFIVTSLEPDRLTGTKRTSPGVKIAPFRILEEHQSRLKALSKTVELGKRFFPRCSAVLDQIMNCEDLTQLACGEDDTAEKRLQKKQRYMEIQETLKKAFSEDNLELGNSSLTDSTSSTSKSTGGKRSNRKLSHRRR
# Sequence of PCNA2, proliferating cell nuclear antigen 2 (Q9ZW35 whole entry): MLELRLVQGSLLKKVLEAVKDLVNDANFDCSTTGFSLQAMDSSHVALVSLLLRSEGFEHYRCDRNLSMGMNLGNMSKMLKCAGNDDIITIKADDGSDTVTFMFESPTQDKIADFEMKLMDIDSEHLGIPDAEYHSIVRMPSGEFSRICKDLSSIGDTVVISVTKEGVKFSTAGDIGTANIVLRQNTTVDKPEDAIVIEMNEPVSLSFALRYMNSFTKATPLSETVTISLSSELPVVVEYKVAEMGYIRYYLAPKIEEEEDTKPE
# Sequence of FUS11, Proteasome component (PCI) domain protein (Q8W575 whole entry): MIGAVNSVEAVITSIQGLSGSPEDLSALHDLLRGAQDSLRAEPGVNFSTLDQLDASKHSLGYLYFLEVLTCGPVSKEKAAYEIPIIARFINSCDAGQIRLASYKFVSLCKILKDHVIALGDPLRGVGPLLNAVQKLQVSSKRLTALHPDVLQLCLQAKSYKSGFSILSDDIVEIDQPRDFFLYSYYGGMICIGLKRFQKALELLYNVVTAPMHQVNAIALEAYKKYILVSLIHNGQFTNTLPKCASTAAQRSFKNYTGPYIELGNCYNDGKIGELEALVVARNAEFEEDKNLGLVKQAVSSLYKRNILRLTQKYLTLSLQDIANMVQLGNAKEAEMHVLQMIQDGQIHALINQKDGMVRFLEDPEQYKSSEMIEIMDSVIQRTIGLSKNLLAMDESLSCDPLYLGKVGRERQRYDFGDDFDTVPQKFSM
# Sequence of SQE3, squalene epoxidase 3 (Q8VYH2 whole entry): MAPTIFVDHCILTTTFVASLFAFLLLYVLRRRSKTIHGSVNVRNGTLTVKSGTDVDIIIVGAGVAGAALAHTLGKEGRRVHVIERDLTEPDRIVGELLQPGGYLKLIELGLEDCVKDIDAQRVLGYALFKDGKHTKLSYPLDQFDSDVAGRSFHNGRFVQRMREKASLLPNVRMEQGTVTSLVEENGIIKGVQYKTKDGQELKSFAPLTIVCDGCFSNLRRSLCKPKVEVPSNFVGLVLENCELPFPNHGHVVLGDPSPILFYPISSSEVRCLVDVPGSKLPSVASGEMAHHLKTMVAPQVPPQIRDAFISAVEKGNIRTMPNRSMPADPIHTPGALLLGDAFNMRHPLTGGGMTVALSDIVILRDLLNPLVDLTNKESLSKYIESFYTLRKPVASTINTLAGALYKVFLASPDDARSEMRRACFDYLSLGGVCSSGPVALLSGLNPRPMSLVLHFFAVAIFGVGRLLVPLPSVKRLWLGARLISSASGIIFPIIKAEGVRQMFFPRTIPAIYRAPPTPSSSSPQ
# Sequence of ROC3, rotamase CYP 3 (Q38900 whole entry): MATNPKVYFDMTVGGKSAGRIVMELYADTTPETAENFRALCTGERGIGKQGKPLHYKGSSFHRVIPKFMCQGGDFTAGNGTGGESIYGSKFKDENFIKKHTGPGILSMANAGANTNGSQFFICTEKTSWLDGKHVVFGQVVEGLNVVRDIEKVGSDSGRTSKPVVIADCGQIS
# Sequence of ATMDAR2, Pyridine nucleotide-disulphide oxidoreductase family protein (Q93WJ8 whole entry): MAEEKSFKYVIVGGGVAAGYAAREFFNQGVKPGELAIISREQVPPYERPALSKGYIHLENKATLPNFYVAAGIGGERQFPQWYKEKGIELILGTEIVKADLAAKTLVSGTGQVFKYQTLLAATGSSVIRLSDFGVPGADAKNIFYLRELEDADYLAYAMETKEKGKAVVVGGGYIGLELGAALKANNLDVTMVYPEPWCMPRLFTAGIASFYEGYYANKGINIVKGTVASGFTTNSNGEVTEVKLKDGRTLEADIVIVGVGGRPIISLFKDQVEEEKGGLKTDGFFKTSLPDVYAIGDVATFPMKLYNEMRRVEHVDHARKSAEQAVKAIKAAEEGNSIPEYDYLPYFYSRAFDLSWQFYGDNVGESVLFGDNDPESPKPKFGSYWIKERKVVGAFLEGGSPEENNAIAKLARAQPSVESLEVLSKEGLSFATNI
# Sequence of SAG2, aleurain-like protease (Q8H166 141-358): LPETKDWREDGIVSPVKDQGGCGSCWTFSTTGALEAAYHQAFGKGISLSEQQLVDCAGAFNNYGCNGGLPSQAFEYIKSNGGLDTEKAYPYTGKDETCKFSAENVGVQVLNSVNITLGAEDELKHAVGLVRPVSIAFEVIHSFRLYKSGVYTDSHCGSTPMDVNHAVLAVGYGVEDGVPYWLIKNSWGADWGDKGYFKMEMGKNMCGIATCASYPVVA
# Sequence of GDH1, glutamate dehydrogenase 1 (Q43314 whole entry): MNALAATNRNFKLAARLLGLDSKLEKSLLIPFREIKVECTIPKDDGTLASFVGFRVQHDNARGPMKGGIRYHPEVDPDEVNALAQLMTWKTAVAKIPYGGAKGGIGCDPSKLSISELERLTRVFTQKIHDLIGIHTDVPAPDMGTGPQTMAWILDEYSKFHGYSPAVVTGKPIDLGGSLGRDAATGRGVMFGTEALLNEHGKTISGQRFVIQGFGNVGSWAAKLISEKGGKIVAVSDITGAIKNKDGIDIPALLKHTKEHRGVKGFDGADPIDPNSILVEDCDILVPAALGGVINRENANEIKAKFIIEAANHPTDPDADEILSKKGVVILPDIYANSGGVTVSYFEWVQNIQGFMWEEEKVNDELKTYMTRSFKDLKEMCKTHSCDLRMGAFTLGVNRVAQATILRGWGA
# Sequence of RNR1, ribonucleotide reductase 1 (Q9SJ20 whole entry): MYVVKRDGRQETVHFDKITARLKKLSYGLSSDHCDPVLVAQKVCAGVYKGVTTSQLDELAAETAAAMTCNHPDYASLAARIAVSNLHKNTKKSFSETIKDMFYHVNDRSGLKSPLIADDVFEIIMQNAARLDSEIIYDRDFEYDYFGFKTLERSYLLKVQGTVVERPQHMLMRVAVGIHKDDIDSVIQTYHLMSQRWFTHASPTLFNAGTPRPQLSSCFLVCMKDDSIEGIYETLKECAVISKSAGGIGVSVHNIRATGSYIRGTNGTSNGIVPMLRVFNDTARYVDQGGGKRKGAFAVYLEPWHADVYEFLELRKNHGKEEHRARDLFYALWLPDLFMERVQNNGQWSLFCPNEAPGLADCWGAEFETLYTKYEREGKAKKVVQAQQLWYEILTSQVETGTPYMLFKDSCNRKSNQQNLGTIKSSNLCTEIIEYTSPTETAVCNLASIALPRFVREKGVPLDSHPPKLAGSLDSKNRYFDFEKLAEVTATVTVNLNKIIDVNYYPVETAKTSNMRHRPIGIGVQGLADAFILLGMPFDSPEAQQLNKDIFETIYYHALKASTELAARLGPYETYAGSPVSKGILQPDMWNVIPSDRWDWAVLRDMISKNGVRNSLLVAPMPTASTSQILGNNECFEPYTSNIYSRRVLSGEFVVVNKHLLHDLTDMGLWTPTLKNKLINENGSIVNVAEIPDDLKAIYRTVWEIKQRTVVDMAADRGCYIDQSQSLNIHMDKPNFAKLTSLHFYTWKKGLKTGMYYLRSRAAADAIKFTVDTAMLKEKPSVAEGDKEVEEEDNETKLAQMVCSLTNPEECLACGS
# Sequence of P-loop containing nucleoside triphosphate hydrolases superfamily protein (AT5G17760) (Q9FN75 whole entry): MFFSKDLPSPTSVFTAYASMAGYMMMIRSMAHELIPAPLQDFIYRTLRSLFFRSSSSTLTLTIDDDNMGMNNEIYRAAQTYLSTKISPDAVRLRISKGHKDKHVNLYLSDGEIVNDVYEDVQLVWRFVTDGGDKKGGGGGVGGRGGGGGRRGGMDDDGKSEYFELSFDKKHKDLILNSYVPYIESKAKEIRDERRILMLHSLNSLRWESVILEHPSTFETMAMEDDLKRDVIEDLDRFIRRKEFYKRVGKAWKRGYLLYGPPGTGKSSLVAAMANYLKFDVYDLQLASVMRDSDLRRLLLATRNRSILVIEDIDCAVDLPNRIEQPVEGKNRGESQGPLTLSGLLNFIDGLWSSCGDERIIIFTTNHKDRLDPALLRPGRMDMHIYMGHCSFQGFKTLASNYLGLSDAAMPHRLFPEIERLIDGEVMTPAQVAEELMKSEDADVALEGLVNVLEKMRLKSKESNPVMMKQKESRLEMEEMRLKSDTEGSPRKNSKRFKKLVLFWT
# Sequence of TOC34, translocon at the outer envelope membrane of chloroplasts 34 (Q38906 2-313): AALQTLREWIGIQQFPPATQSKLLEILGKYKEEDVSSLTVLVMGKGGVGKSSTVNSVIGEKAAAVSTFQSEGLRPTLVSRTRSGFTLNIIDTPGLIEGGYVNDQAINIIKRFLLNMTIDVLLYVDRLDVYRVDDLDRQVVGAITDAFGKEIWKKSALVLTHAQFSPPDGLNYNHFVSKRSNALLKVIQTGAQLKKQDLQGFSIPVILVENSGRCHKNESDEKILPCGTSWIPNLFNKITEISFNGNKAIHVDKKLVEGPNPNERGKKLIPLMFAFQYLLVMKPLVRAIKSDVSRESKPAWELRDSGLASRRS
# Sequence of NRP1, nodulin-related protein 1 (Q9ZQ80 whole entry): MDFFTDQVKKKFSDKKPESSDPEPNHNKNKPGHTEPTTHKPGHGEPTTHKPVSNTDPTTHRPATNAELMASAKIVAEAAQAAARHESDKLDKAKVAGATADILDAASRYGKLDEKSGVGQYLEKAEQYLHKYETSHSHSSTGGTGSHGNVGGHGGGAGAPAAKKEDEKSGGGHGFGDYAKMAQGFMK
row,Substance,Normalized Fold Change: SA vs Mock
1,"ATMDAR2, Pyridine nucleotide-disulphide oxidoreductase family protein",2.75 fold
2,"ATSPS4F, Sucrose-phosphate synthase family protein",2.2 fold
3,"BCS1, cytochrome BC1 synthesis",16 fold
4,"CAM7, calmodulin 7 (from UniProt P59220 1-149)",3.96 fold
5,"CAND1, cullin-associated and neddylation dissociated (from UniProt Q8L5Y6 2-1219)",42.1 fold
6,"CER3, FLP1, WAX2, YRE, Fatty acid hydroxylase superfamily",3320 fold
7,"DDB1B, damaged DNA binding protein 1B (from UniProt O49552 1-1088)",1620 fold
8,Disease resistance protein (TIR-NBS class) (AT1G66090),6.26 fold
9,Disease resistance protein (TIR-NBS class) (AT3G04210),7.6 fold
10,EDA10,2.22 fold
11,"EFE, ethylene-forming enzyme",2.16 fold
12,"ERF1-2, eukaryotic release factor 1-2",2.5 fold
13,FAD/NAD(P)-binding oxidoreductase family protein (AT5G22140),9.82 fold
14,"FUS11, Proteasome component (PCI) domain protein",2.75 fold
15,Fes1A,3.16 fold
16,"GSTU19, glutathione S-transferase TAU 19 (from UniProt Q9ZRW8 1-219)",2.58 fold
17,Leucine-rich repeat (LRR) family protein (AT5G45510),5.05 fold

row,Substance,Normalized Fold Change: SA vs Mock
1,NAD(P)-binding Rossmann-fold superfamily protein (AT2G29320),40 fold
2,NAD(P)-binding Rossmann-fold superfamily protein (AT4G13180),5.46 fold
3,"NPR3, NPR1-like protein 3 (from UniProt Q8L746 1-586)",9.4 fold
4,"NRP1, nodulin-related protein 1",14.3 fold
5,"OPR1, 12-oxophytodienoate reductase 1",4110 fold
6,P-loop containing nucleoside triphosphate hydrolases superfamily protein (AT2G28620),7.17 fold
7,P-loop containing nucleoside triphosphate hydrolases superfamily protein (AT3G28510),6.35 fold
8,P-loop containing nucleoside triphosphate hydrolases superfamily protein (AT3G28540),9.62 fold
9,P-loop containing nucleoside triphosphate hydrolases superfamily protein (AT5G17760),4790 fold
10,PTEN 2,2.24 fold
11,"RHD3, Root hair defective 3 GTP-binding protein (RHD3)",2.86 fold
12,RNA helicase family protein (AT1G27900),1960 fold
13,"RNR1, ribonucleotide reductase 1",2180 fold
14,"ROC3, rotamase CYP 3",5.75 fold
15,S-adenosyl-L-methionine-dependent methyltransferases superfamily protein (AT2G32160),3.44 fold
16,"SQE3, squalene epoxidase 3",50.1 fold
17,"TOC34, translocon at the outer envelope membrane of chloroplasts 34",9.76 fold

# Results, then the substance that gave them:
row,Normalized Fold Change: SA vs Mock,Substance
1,8.65 fold,"AGD5, NEV, ARF-GAP domain 5"
2,10.5 fold,"AOAT2, GGT2, alanine-2-oxoglutarate aminotransferase 2"
3,703 fold,AT3G47630
4,4.35 fold,AT3G53470
5,5.26 fold,"ATCNX1, CNX1, calnexin 1"
6,2.33 fold,"ATM1, myosin 1"
7,3.23 fold,"ATPAD4, PAD4, alpha/beta-Hydrolases superfamily protein (from UniProt Q9S745 1-541)"
8,2.42 fold,"ATR4, CYP83B1, RED1, RNT1, SUR2, cytochrome P450, family 83, subfamily B, polypeptide 1 (from UniProt O65782 1-499)"
9,3.15 fold,"CTF2B, FAD/NAD(P)-binding oxidoreductase family protein"
10,2.8 fold,"CYP51, CYTOCHROME P450 51G1"
11,2.52 fold,"DDB1A, damaged DNA binding protein 1A (from UniProt Q9M0V3 1-1088)"
12,5.17 fold,Disease resistance protein (TIR-NBS-LRR class) (AT4G19510)
13,10.2 fold,Disease resistance protein (TIR-NBS-LRR class) (AT5G41750)
14,3.1 fold,"EDA39, calmodulin-binding family protein"
15,3.18 fold,"EDS1, enhanced disease susceptability"
16,86.4 fold,"GDH1, glutamate dehydrogenase 1"
17,2.01 fold,"GSTF6, glutathione S-transferase 6 (from UniProt P42760 1-208)"

row,Normalized Fold Change: SA vs Mock,Substance
1,4.72 fold,"HSP70, heat shock protein 70"
2,2.09 fold,"IMPA1, importin alpha isoform 1"
3,2270 fold,Leucine-rich repeat (LRR) family protein (AT5G45520)
4,16.7 fold,"NPR2, NPR1-like protein 2 (from UniProt Q9SZI3 1-600)"
5,14.6 fold,"PAD3, Cytochrome P450 superfamily protein (from UniProt Q9LW27 1-490)"
6,2.83 fold,"PCNA2, proliferating cell nuclear antigen 2"
7,3.96 fold,"PLP2, phospholipase A 2A"
8,3.65 fold,"PR1, pathogenesis-related gene 1 (from UniProt P33154 27-161)"
9,5.9 fold,"PRH75, DEAD box RNA helicase (PRH75)"
10,3.14 fold,"RD19A, Papain family cysteine protease"
11,7.18 fold,RNA helicase family protein (AT3G62310)
12,2.24 fold,S-adenosyl-L-methionine-dependent methyltransferases superfamily protein (AT1G55450)
13,4.08 fold,"SAG2, aleurain-like protease"
14,5810 fold,"SCPL27, serine carboxypeptidase-like 27"
15,709 fold,"SIRANBP, Pleckstrin homology (PH) domain superfamily protein"
16,2.93 fold,"SOUL-1, SOUL heme-binding family protein"
